The text below walks through data of the nanobody polyreactivity screen of Harvey et al. (2022).

The data set is described as follows: yeast display, Sf9 membrane polyspecificity reagent, FACS + sequencing; frameworks hold sequencing errors. Put shortly:
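After 36–48 hours of galactose induction, yeast (Saccharomyces cerevisiae BJ5465) displaying a synthetic nanobody library were stained at 4 °C for 1 hour with 10% biotinylated, detergent-solubilized Sf9 membrane reagent. Streptavidin microbeads enriched the stained cells before FACS sorting into low and high (top ~1%) gates on anti-HA and streptavidin fluorescence. Each clone's polyreactivity label reflects its gate of origin.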
For “QVQLVESGGGLVQAGGSLRLSCAASGSIFYINAMGWYRQAPGKERELVASISGGGGSTYYADSVKGRFTISRDNAKNTVYLQMNSLKPEDTAVYYCAARYRVYYLAGYEYWGQGTQVTVSS”, the “polyreactivity (PSR sort gate)” value is recorded as “high polyreactivity”.

“QDQLVEAGGGLVQAGGSLRKSCAASGRIFNTNAMGWNRQAPGKERELVAGITDSGDSTYYADSVKGRFTISRDNAKNTVYLQMNRLKPEDSAVYYCATDPASPYIYDFWGQGTQVTVSS”: the “polyreactivity (PSR sort gate)” value was “low polyreactivity”.

As for “QVQLVESGGGLVQAGGSLRLSCAASGRISSGYAMGWYRQAPGKERELVAAISSIGGRTYYADSVKGRFTISRDNAKNTVYLQMNSLKPEDTAVYYCNTYPYIQRTWWYDYWGQGTQVTVSS”, the “polyreactivity (PSR sort gate)” value is “high polyreactivity”.

Take “QDQLVESGGGLVQAGGSLRLSCAASGSTFSDNTMGWYRQAPGKERELVAANTTIGGSTYYADSVKGRFTISRDNAKNTVSVQMISLKPEDTAVYYCAAVDFTSQYYDLYIYWGQGTQVTVSS”: the “polyreactivity (PSR sort gate)” value was “low polyreactivity”.

As for “QVQLVESGGGLVQAGGSLRLSCAASGFTFFKYAMGWYRQAPGKERELVAAITRNGGRTYYADSVKGRFTISRDYAKNTVYLQMNSLKPEDTAVYYCNAASVNGGRDFDYWGQGTQVTVSS”, the “polyreactivity (PSR sort gate)” value is listed as “high polyreactivity”.

Regarding “QVQLVESGRGLVQAGGSLRLSCAASGSTFATYAMGWYRQAPGKERELVAVITRGGRTYYADSVKGRFTISRDNAKNTVYLQMNSLKPEDNAVYYCAAKAYTYYARIGFDYWGQGTQVTVSS”, the “polyreactivity (PSR sort gate)” value was “high polyreactivity”.

“QVQLLESGGGLVQARGSLRLSCAASGSIFTYYAMGWYRQAPGIEREFVAAISRRGGSTYYADSVKGRFTISRDNAKNTVYLQMNSLKAVDTAVYYCAKDPSFTRGYKEGGGYDYWGQGTQVTVSS”: the “polyreactivity (PSR sort gate)” value was “high polyreactivity”.

Regarding “QVQLVESGGGLVQAGGSLRITCAASGYTFGAYSMGWYRQAPWKERELVAAITVRAGRTYYADSVKGRFTISRDNAKNTVYLQMNSLKPEDTAVYYCAADGYLLYVQHPNGRRYDYWGQGTQVTVSS”, the “polyreactivity (PSR sort gate)” value was “low polyreactivity”.

“QVQLVESGGGLVQAGGSLRLSCAAYGINFYKYAMVWSRQAPGQERELVASITKSAGSTNYADSDKGRFTISRDNAMNTVYLQMNSLKPEDTAVYYCAARRFTFNLFDYWGQGTQVTVSS”: the “polyreactivity (PSR sort gate)” value is recorded as “high polyreactivity”.

Take “QVQLVESGGGLVQAGGSLRLSCAASGLTFWVYTMGWYRQAPGKERELVARITSRGASTYYADSVKGRFTISRDNAKNTVYLQMNSLKPEDTAVYYCATDRYRIYPDYDYWGQGTQVTVSS”: the “polyreactivity (PSR sort gate)” value is listed as “high polyreactivity”.

As for “QVQLVESGGGLVQAGGSLRLSCAASGSIFAYNAMGWYRQAPGKEREFVAVITRSDDSTYADSVKGRFTISRDNAKNTVFLQMNRLKPEDTAVYDCAAQPFVIDGGYRGDYWGQGTQVTVSS”, the “polyreactivity (PSR sort gate)” value is on record as “low polyreactivity”.

For the sequence “QVQLVESGGGLVQAGGSLRLSCAASGRTFYSYAMGWYRQAPGKERELVAAISFRDGRTYYADSVKGRFTISRDNAKNTVYLQMNSLKPEDTAVYYCAAQLSHYYSLYYYWGQGTQVTVSS”, the “polyreactivity (PSR sort gate)” value was “high polyreactivity”.

For the sequence “QVQLVESGGGIVQEAGSLSLSCAASRLTFTTYNMGWSRPAPGKERELVAALSSRGGSTYYADSVKGRFTISRDNAKNTVYLEKNSLKPEDTAVDYCNAPRPHRMDWGQGTQVTVSS”, the “polyreactivity (PSR sort gate)” value is “high polyreactivity”.

“QVQLVESGGGLVQAGGSLRLSCAASGRIFVNNAMGWYRQAPGKERELVAAISKRGGSTYYADSVKGRFTISRDNAKNSVYLQMNSLKPEDTAVYYSAATPVYSGPYDYWGQGTQVTVSS”: the “polyreactivity (PSR sort gate)” value is on record as “high polyreactivity”.

Consider “QVQLVESGGGLVQAGGSLRLSCAASGSIFANYAMGWYRQAPGKERELVAAISKRGGSTNYADSVKGRFTISRDNAKNTVYLQMISLKPEDTAVYYCNVKPGSRRVLAAAYGYWGQGTKVTVSS”, for which the “polyreactivity (PSR sort gate)” value is “low polyreactivity”.

“QVHLVESGGGLVQAGCSLRLSCAASGFTYYYYAIGWYRQAPGTEMELVAAISSGGSTNYADSVKGRFTISRDNANNTVYLQMNSLKPEDTAVYYCAATQPYWWAYRYDYWGQGTKVTVSS”: the “polyreactivity (PSR sort gate)” value is listed as “low polyreactivity”.

On to “QVQLVESGGGLVQAGGSLRLSCAASGSIFDGYAMGWYRQAPGKERELVASISSGGSTNYADSVKGRFTISRDNAKNTVYLQMNSLKPEDTAVYYCAAEWVWYKWEFEYWGQGTQVTVSS”, for which the “polyreactivity (PSR sort gate)” value is “high polyreactivity”.

In the case of “QVQHVESVGGLDQAGRSLRLSCAASGSTFTPYAMGWYRQAPGKESELVAGITGNGGSTRYADSVKGRFTISRDNAKKTVYLQMNSLKPEDTAVYYCAARWTRQRYRTSYYSWGQGTQVTVSS”, the “polyreactivity (PSR sort gate)” value is recorded as “high polyreactivity”.

For the sequence “QVQLVESGGGLVQGGGSLRLSCADSGSTFSSNAMGWYRQAPGKERELVAAITGSGGRTYYADSVKRRFTISRDNAKNTVYLQMNCLKPEDTAVYYCAKRYRGGYWGQGTQVTVSS”, the “polyreactivity (PSR sort gate)” value is reported as “high polyreactivity”.

Turning to “QVQLVESGGGLVQAGGSLRLSCAASGRTFGYYAMGWYRQAPGKERELVAAINWRGDSTYYADSVKGRFTISRDNAKNTVYLQMNSLKPEDTAVYYCAALVRGYDRSIRMDYWGQGTQVTVSS”, the “polyreactivity (PSR sort gate)” value is recorded as “high polyreactivity”.

For the sequence “QVQLVESGGGLVQAGGSLRLSCAASGFTFRRYAMGWYRQAPGKERELVAAISTSGGRTYYADSVKGRFTISRDNAKNTVYLQMNSLKPEDTAVYYCAARIPKQRDVRGSGMNYWGQGTQVTVSS”, the “polyreactivity (PSR sort gate)” value is recorded as “high polyreactivity”.

On to “QVQLVESGGGLVQAGGSLRLSCAASGSIFRWYAMGWYRQAPGKERELVAAITWSASRTYYADSVKGRFTISRDNAKNTVYLQMNSLKPEDTAVYYCAADHDGPYAGYDSWGQGTQVTVSS”, for which the “polyreactivity (PSR sort gate)” value is on record as “low polyreactivity”.

For the sequence “QVQLVESGGGLVQAGGSLRLSCAASGITFYGYDMGWYRQAPGKERELVAAITSDGITNYADSVKGRFTISRDNAKNTVYLQMNSLKPEDTAVYYCAADLSFYRRYEWYYYWGQGTQVTVSS”, the “polyreactivity (PSR sort gate)” value is reported as “low polyreactivity”.

As for “QVQLVESGGGLVQAGGSLRLICAASGRIFHPYAMAWYRQAPGKERELVATISWSGGSTTYEDSVKGRFTISRDNAKNTVYLQMNSLKPEDTAVYYCNADYWWSYVRFVYWGQGTQVTVSS”, the “polyreactivity (PSR sort gate)” value is given as “low polyreactivity”.

For the sequence “QVQLVESGGGLVQAGGSLGLSCAASGRTFQQNAMGWYRQAPGKERELVAALNSRGGRTYYADYVKGRFTISRDNAKNTVYLQMNSLKPEDTAVYYCAARYYWGQGTEVTVSS”, the “polyreactivity (PSR sort gate)” value was “high polyreactivity”.

In the case of “QVQLVESGGGLVQAGGSLRLSCAASGRIFPAYVMGWYRQSPGKERELVATIDNGGGTYYADSVKGRFTISRDNAKNTVYLQMNSLKPEDTAVYYCARDRHVRWGLKMDYWGQGTQVTVSS”, the “polyreactivity (PSR sort gate)” value is given as “low polyreactivity”.

Take “QVQLVESVGGLVQAGGSLRLSCAASGRIFSVNAMGWYRQAPGKERELVAAITTRGGTTYYADSVKGRFTISRDNAKNTVYLQMNSLKPEDTAVYYCAAESSWYVYWEWAHDYWGQGTQVTVSS”: the “polyreactivity (PSR sort gate)” value is listed as “low polyreactivity”.

For “QVQLVESGGGLVQAGGSLRLSCAASGSTFNLYAMGWYRQAHGKERELVADITWSGGSTYYADSVKWRFTISRDNAKKTFYLQMNSLKPEDTAVYYCAAYGLSWGGYDYWGQATQVTVSS”, the “polyreactivity (PSR sort gate)” value is “low polyreactivity”.

Take “QVQLVDSGGGLVQAGGSLRLSCAASGRTFDGYAMGWYRQAPGKERELVAAISRTGGSTYYADSVKGRFTISRENAKNTVYLLMTSLKPEDTAVYYCNAVTLSSTYGGHDYWGQGTQVTVSS”: the “polyreactivity (PSR sort gate)” value is on record as “high polyreactivity”.

“QVQLVDSGGGLVQAGGSLRLSCAASGRIFHGYAMGWYRLAPGKERELVAAISWRGDSTYYADSVKGRFTISRDNAKNTVYLQMNSLKPEDTAVYYCAAASRSWRDDYWGQGTQVTVSS”: the “polyreactivity (PSR sort gate)” value was “low polyreactivity”.

Take “QVQLVESGGGLVQAGGSLRLSCAASGLIFVQNAMGWYRQAPGKEREFVAAISAGGTRTYYADSVKGRFTISRDNAKNTVYLQMNSVKPEDTAVYYCAAASGYDYWGQGTQGTVSS”: the “polyreactivity (PSR sort gate)” value is “high polyreactivity”.

Take “QVQLVESGGGLVQAGGSLRLICAASGFIFGLNAIGWYRQAPGKERELVAAIRSASSTNYADSVKGRFTISRDNAKNTVYLQMNSLKPEDTAVYYCAAEDFTRQFEYWGQGTQVTVSS”: the “polyreactivity (PSR sort gate)” value is “low polyreactivity”.

With “QVQLVESGGGLVQAGGSLRLSCAPSRRIFRSYAMGWYSQAPGKERELVAAISSRGSTYYADSVKGRFTISRDNEKNTVFLQMNSLKPEDTAVYYCAVHLWVYPLKREFYWGQGTQVTVSS”, the “polyreactivity (PSR sort gate)” value is “high polyreactivity”.

Take “QVQLVESGGGLVQAGCILRLSCAASGRIYVKAMGCYRQPPGIERELVAAIRSGGSTNYADSVKGLFTISRDNAKNTVYLQMNSLKPEDTAVYYCDAPYRLSKYDYWGQGTQVTESS”: the “polyreactivity (PSR sort gate)” value is reported as “high polyreactivity”.

On to “QVQLVESGGGLVQAGGSLRLSCAASGFIFVDNAMGWYRQAPGKERELVAAITYRGGSTYYADSVKGRFTISRDNAKNTVYLQMNSLKPEDTAVYYCNADYGDTFEYDYWGQGTQVTVSS”, for which the “polyreactivity (PSR sort gate)” value is listed as “low polyreactivity”.

Consider “QVQLVESGGGIVQAGGSLRLSCAATGFIFDQNAMAWYIQAPGKERELVAAISKRGGSTYYADSVKGRFTISRDNAKNTVYLQMNSLKREDTAVYYGATRSWGPYYYGYNHWGQGTQVTVSS”, for which the “polyreactivity (PSR sort gate)” value is recorded as “high polyreactivity”.

For “QVQLVESGGGLVQAGGSLRLSCAASGITFTYYARGWYRQAPGKEMELVAAISWSGGSTYYADSVKGRFTISRDNAKNTVYLQMNSLKPEDTAVYYCAATFSRFAYYYWGQGTQVTVSS”, the “polyreactivity (PSR sort gate)” value is reported as “high polyreactivity”.

As to “QVQLGESGGGLVQAGGSLRLSCAASGNTFVSNAMGWYRQAPGKERELVAAINSGGSTNYADSVKGRFTISRDNAKNTVYLQMNSLKPEDTAVYYCNKDYDYPQRYWMDYWGQGTQVTVSS”, the “polyreactivity (PSR sort gate)” value was “low polyreactivity”.

Regarding “QVRLVESGGGLVQAGGSLRLSCAASGSIFDVYAMGCYRQAPGKERELVATISYGDSSTYYADSVKGRFTISRDTAKNTVYLQMNSLKPEDTAVYYCAADYLTAPRWRQWGEMDYWGQGTQVTVSS”, the “polyreactivity (PSR sort gate)” value is reported as “low polyreactivity”.

In the case of “QVQLVESGGGLVQAGGSLRLSCAASGLIFTYYAMGWYRQAPGKERELVAGISSGTNTNYADSVKGRFTISRDNAKNTVYLQMNSLKPEDTAVYYCAKTRGYQFVAYGYWGQGTQVTVSS”, the “polyreactivity (PSR sort gate)” value is recorded as “low polyreactivity”.

On to “QVQLVESGGGLVQAGGSLRLSCAASGIIFWYYAMGWYRQAPGIERELVAAISQSGGRTYYADSVKGRFTISRDNAKKTVYLQMNSLKPEDTAVYYCAAEPYTGYGYWGQGTQVTVSS”, for which the “polyreactivity (PSR sort gate)” value is given as “high polyreactivity”.
